Values of other authors, collected in patent US9034821B2, “Pharmaceutical composition” (priority 2011, dated 2015).
Like-named read-outs stand apart in the source and are kept apart here.

Cys-Tyr-Ile-Gln-Asn-Cys-Pro-Leu-Gly-NH2 [oxytocin]
pH of best stability (aqueous solutions of different pH): 4.5 | degradation of oxytocin (buffered aqueous solution of pH 3, stored at 70° C. for 7 days): about 15 % (area %) | degradation of oxytocin (buffered aqueous solution, pH 4, stored at 70° C. for 7 days): approximately 35 % (area %)
